Measurements from article PMC8307938, “The Lysozyme Inhibitor Thionine Acetate Is Also an Inhibitor of the Soluble Lytic Transglycosylase Slt35 from Escherichia coli” (Molecules, 2021).

Key:
Asp52 = Asp52 (UniProt position 70, TDGSTDYGILQ); assay: NMR; conditions: not stated (presumably free, folded enzyme); cited from earlier work
Glu35 = Glu35 (UniProt position 53, CAAKFESNFNT); assay: NMR; conditions: not stated (presumably free, folded enzyme); cited from earlier work
Slt35 = target: T1, Slt35 (Escherichia coli, UniProt P41052); assay: intrinsic fluorescence quenching titration (also turbidimetric inhibition assay, IC50 […]); format: binding
T1 construct: gene mltB; N-terminal His-tag
T1 sequence (P41052 19-361): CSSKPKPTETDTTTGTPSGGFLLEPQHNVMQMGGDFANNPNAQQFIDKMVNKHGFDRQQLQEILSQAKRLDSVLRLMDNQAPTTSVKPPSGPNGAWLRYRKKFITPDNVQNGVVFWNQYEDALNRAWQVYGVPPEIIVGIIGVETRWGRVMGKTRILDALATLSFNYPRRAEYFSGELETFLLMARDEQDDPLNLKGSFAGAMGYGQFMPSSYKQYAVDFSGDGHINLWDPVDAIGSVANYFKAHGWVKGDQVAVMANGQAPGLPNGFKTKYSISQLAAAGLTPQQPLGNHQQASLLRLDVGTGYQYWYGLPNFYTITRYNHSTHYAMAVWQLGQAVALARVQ

hen egg white lysozyme = target: T2, hen egg white lysozyme (Gallus gallus, UniProt P00698); assay: as above; format: binding
T2 construct: gene LYZ
T2 sequence (P00698 19-147): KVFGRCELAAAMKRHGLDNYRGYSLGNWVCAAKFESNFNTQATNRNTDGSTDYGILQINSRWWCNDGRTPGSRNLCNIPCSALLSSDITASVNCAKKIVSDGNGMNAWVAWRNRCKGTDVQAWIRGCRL

| Compound | pKa (Asp52) | pKa (Glu35) | Kd (Slt35) [µM] | Kd (hen egg white lysozyme) [µM] |
| --- | --- | --- | --- | --- |
| Hen egg white lysozyme (lysozyme C) (Gallus gallus) | 3.7 | 6.2 |  |  |
| Nc1ccc2nc3ccc(N)cc3[s+]c2c1 [thionine acetate] |  |  | 17.1 ± 1 | 18.6 ± 1.2 |
